In assay [1] the target is T1, Peptide 4, non-conjugated (SMEDYVNFNF-C) (human).
T1 construct: With the extra C-terminal Cys
T1 peptide: SMEDYVNFNFC
Put plainly: ELISA; Ab 1 ug/mL; repI. As for the experimental part: (§1) In brief, plates with each non-conjugated peptide (50 μg/mL) or BSA-conjugated peptide (5 μg/mL) were coated in 0.58M carbonate-bicarbonate buffer pH9.5, 100 μL/well, at 4° C. […] After washing, wells were incubated with the 3, 3′,5,5′-Tetramethylbenzidine (TMB) HRP substrate and reactions were stopped with 2M HCl and OD450 was recorded.
Background: An ELISA detects its analyte on a solid surface through an enzyme-linked reagent.

Assay [2] addresses T2, Peptide 3, non-conjugated (SSMEDYVNFN-C) (human).
T2 construct: With the extra C-terminal Cys
T2 peptide: SSMEDYVNFNC
Put plainly: ELISA; Ab 1 ug/mL; repI. As for the experimental part: as §1

Assay [3] addresses T3, Peptide 3-BSA (SSMEDYVNFN-C conjugated to BSA) (human).
T3 peptide: SSMEDYVNFNC(BSA)
Kind of assay: ELISA; Ab 1 ug/mL; repI. As for the experimental part:
as §1

Assay [4] concerns the target T4, antigen peptide-BSA (immunisation peptide #1 MADDYGSESTSSMEDYVNFNF-C conjugated to BSA) (human, extra C-terminal Cys conjugated to BSA).
T4 construct: also called Positive control antigen peptide-BSA; MADDY peptide
T4 peptide: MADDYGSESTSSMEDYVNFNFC
Put plainly: ELISA; Ab 1 ug/mL; repI. As for the experimental part: as §1

In assay [5] the target is T5, Peptide 2, non-conjugated (GSESTSSMED-C) (human).
T5 construct: With the extra C-terminal Cys
T5 peptide: GSESTSSMEDC
Kind of assay: ELISA; Ab 1 ug/mL; repI. As for the experimental part: as §1

Assay [6] concerns the target T6, Peptide 1, non-conjugated (MADDYGSEST-C) (human).
T6 construct: With the extra C-terminal Cys
T6 peptide: MADDYGSESTC
Kind of assay: ELISA; Ab 1 ug/mL; repI. As for the experimental part:
as §1

Assay [7] concerns the target T7, Peptide 2-BSA (GSESTSSMED-C conjugated to BSA) (human).
T7 peptide: GSESTSSMEDC(BSA)
Kind of assay: ELISA; Ab 1 ug/mL; repI. As for the experimental part: as §1

Assay [8] addresses T8, BSA (negative control coating) (bovine, UniProt P02769 25-607).
T8 construct: also called Negative control BSA
Kind of assay: ELISA; Ab 1 ug/mL; repI. As for the experimental part:
as §1

Assay [9] concerns the target T9, Peptide 1-BSA (MADDYGSEST-C conjugated to BSA) (human).
T9 peptide: MADDYGSESTC(BSA)
Kind of assay: ELISA; Ab 1 ug/mL; repI. As for the experimental part:
as §1

Assay [10] concerns the target T10, Peptide 4-BSA (SMEDYVNFNF-C conjugated to BSA) (human).
T10 peptide: SMEDYVNFNFC(BSA)
Kind of assay: ELISA; Ab 1 ug/mL; repI. As for the experimental part: as §1

The target in assay [11] is T11, biotin-peptide TSSMEDYVNF (human).
T11 peptide: Biotin-TSSMEDYVNF
Put plainly: ELISA biotin-peptide; scFv 0.3125 ug/mL; repII. As for the experimental part: (§2) The peptides were synthesized naked or with a N-terminal Biotin modification with a purity of >98%. All four scFvs were verified by ELISA that can be detected with anti-His antibodies. ELISA was performed for scFv-peptide binding validation. Briefly, naked peptides were coated (50 μg/mL) in 0.58M carbonate-bicarbonate buffer pH9.5, 100 μL/well, 4° C. O/N. Then after blocking (3% BSA-PBS, 300 μL/well 37° C. 1.5 h) and washing (PBS+Tween-20 0.05% v/v (0.05% PBST), wells were incubated with each purified scFv antibody at concentration of 1 μg/mL in PBS at 37° C. 1 h. After washing (0.05% PBST), wells were incubated with secondary antibodies (goat anti-His IgG-HRP) in PBS, 37° C., 30 min. After washing, and incubation with TMB substrate, reactions were stopped with 2M HCl and reading was quantified at OD450.
(§3) ELISA with biotin-conjugated peptides (5 μg/mL) was performed very similar to described above with minor modifications.
(§4) A full curve ELISA was performed for each positive scFv/biotin-peptide pair in order to confirm previous results. Tables 15-17 show ELISA results of the dose-dependent full curve for each positive peptide with scFv “CCR9_HUM”, “Comp-2” and “Comp-3”, respectively.

In assay [12] the target is T12, biotin-peptide SSMEDYVNFN (human).
T12 peptide: Biotin-SSMEDYVNFN
Put plainly: ELISA biotin-peptide; scFv 1.25 ug/mL; repI. As for the experimental part:
as §2, §3, §4

The target of assay [13] is T13, biotin-peptide SMEDYVNFNF (human).
T13 peptide: Biotin-SMEDYVNFNF
Put plainly: ELISA biotin-peptide; scFv 1.25 ug/mL; repI. As for the experimental part:
as §2, §3, §4

For assay [14], the target named is T11, biotin-peptide TSSMEDYVNF
Put plainly: ELISA biotin-peptide; scFv 1.25 ug/mL; repI. As for the experimental part: as §2, §3, §4

The target of assay [15] is T14, biotin-peptide MEDYVNFNFT (human).
T14 peptide: Biotin-MEDYVNFNFT
Kind of assay: ELISA biotin-peptide; scFv 1.25 ug/mL; repI. As for the experimental part:
as §2, §3, §4

Assay [16] has as its target T12, biotin-peptide SSMEDYVNFN
Put plainly: ELISA biotin-peptide; scFv 0.15625 ug/mL; repI. As for the experimental part: as §2, §3, §4

Assay [17] addresses T13, biotin-peptide SMEDYVNFNF
Kind of assay: ELISA biotin-peptide; scFv 0.15625 ug/mL; repI. As for the experimental part:
as §2, §3, §4

The target in assay [18] is T11, biotin-peptide TSSMEDYVNF
Kind of assay: ELISA biotin-peptide; scFv 0.15625 ug/mL; repI. As for the experimental part:
as §2, §3, §4

The target of assay [19] is T14, biotin-peptide MEDYVNFNFT
Put plainly: ELISA biotin-peptide; scFv 0.15625 ug/mL; repI. As for the experimental part: as §2, §3, §4

Another assay deals with T15, naked peptide YVNFNFTDFY (human).
T15 peptide: YVNFNFTDFY
Kind of assay: ELISA, naked peptide.

A further assay has as its target T16, naked peptide SESTSSMEDY (human).
T16 peptide: SESTSSMEDY
Put plainly: ELISA, naked peptide.

The next assay addresses T17, naked peptide TDFYCEKNNV (human).
T17 peptide: TDFYCEKNNV
Kind of assay: ELISA, naked peptide.

For another assay, the target named is T18, naked peptide YCEKNNVRQF (human).
T18 peptide: YCEKNNVRQF
Put plainly: ELISA, naked peptide.

In the next assay the target is T19, naked peptide MTPTDFTSPI (human).
T19 peptide: MTPTDFTSPI
Put plainly: ELISA, naked peptide.

Another assay deals with T20, naked peptide SSMEDYVNFN (human).
T20 peptide: SSMEDYVNFN
Kind of assay: ELISA, naked peptide.

A further assay deals with T21, naked peptide KNNVRQFAS (human).
T21 peptide: KNNVRQFAS
Put plainly: ELISA, naked peptide.

Another assay concerns the target T22, naked peptide TSSMEDYVNF (human).
T22 peptide: TSSMEDYVNF
Put plainly: ELISA, naked peptide.

The target in a further assay is T23, naked peptide FNFTDFYCEK (human).
T23 peptide: FNFTDFYCEK
Put plainly: ELISA, naked peptide.

The target in another assay is T24, naked peptide TDFTSPIPNM (human).
T24 peptide: TDFTSPIPNM
Put plainly: ELISA, naked peptide.

The values below come from patent publication US20260232732A1 (FUNDACI INSTITUT DE RECERCA CONTRA LA LEUC MIA JOSEP …, published 2026).

Where no end group is shown, it is not given here. The star is where a group is joined. Biotin = O=C1N[C@H]2[C@H](CS[C@H]2CCCCC(=O)*)N1

T8 sequence (P02769 25-607 limits assumed): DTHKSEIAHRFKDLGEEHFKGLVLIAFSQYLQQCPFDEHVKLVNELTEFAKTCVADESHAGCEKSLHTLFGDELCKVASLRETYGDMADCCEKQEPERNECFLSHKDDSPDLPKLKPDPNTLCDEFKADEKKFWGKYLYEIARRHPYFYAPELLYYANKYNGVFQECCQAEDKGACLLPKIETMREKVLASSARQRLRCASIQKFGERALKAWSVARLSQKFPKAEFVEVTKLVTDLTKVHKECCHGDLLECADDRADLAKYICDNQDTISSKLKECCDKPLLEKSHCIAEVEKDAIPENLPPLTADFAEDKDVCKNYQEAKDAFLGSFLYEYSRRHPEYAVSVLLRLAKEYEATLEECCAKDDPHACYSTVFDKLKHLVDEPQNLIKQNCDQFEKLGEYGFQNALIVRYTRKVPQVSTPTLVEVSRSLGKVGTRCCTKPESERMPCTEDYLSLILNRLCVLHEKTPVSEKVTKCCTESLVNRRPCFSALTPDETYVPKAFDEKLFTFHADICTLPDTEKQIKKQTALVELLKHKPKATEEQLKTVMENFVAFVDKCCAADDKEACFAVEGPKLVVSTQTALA

B1: anti-CCR9 antibody clone 115 (murine, from hybridoma #115) (antibody, V domains shown)
VH: QVQLKQSGPELVKPGTSVRVSCTASGYSFTDYIIYWVKQSHGRSLEWIGYIDPNNYNTRYSQKFKGKATLTVDKSSTSAFMHLNSLTSDDSAVYYCARDVYWGQGTTLTVSS
VL: DVVMTQTPLSLTVSLGDQASISCRSSQSLVHSNGKTYLQWYLQKPGQSPKLLIYKVSNRFSGVPDRFSGSGSGTDFTLKISRVEAEDLGVYFCAQSTHVWTFGGGTKLEIKR
notes: Mouse IgG1
As to B1, the OD450 in [1] was found to be 2.49 OD; in [2] it was 2.06 OD; in assay [3] it was 2.17 OD; in [4], 2.58 OD; in assay [5], 0.03 OD; in assay [6], 0.02 OD. Also, the OD450 in assay [7] was 0.03 OD; in [8] it was 0.02 OD; in assay [9] it was 0.04 OD; in assay [10], 2.73 OD.

B2: CCR9_HUM2 scFv (humanized anti-CCR9 scFv, SEQ ID NO: 17 with C-terminal 6xHis tag) (scFv)
scFv: QVQLVQSGAEVKKPGASVKVSCTASGYSFTDYIIYWVKQAHGQSLEWMGYIDPNNYNTRYSQKFQGKVTITVDKSSTSAYMELNSLTSDDTAVYYCARDVYWGQGTTVTVSSGGGGSGGGGSGGGGSGGGGSDVVMTQTPLSLSVTPGQPASISCRSSQSLVHSNGKTYLQWYLQKPGQSPKLLIYKVSNRFSGVPDRFSGSGSGTDFTLKISRVEAEDVGVYFCAQSTHVWTFGGGTKVEIKRAHHHHHH
In the case of B2, the OD450 is 0.45 OD in assay [11]; 1.74 OD in [12]; 1.73 OD in [13]; 1.18 OD in [14]; 1.54 OD in assay [15]; 1.64 OD in assay [16]. The OD450 in assay [17] was 1.63 OD; in assay [18], 0.22 OD; in assay [19], 1.41 OD.

B3: Comparative antibody 1 (Comp-1) scFv, SEQ ID NO: 10 from WO2023/037125 A1, His-tagged (scFv)
scFv: QVQLKESGPGLVQPSQTLSLTCTVSGFSVASYDMHWVRLPPGKGLEWMGIIWANGNTHYNSGLKSRLSISRDTSKSQVFLKMNSLQTEDTAIYFCTRGGFAYWGQGTLVTVSSGGGGSGGGGSGGGGSGGGGSDVVMTQTPVSLSVSLGGQVSISCRSSQSLVHNNGNTYLSWYLQKPGQSPQLLIYKVSNRFSGVSDRFSGSGSGTDFTLKISRVEPDDLGVYYCGQGTQYPTFGGGTKLELKHHHHHH
Turning to B3, the binding result with naked peptide YVNFNFTDFY, with naked peptide SESTSSMEDY, in the assay with naked peptide TDFYCEKNNV, in the assay with naked peptide YCEKNNVRQF, with naked peptide MTPTDFTSPI and in the assay with naked peptide SSMEDYVNFN was “no binding (tested: 1 ug/mL)” throughout. Moreover, the binding result with naked peptide KNNVRQFAS, in the assay with naked peptide TSSMEDYVNF, in the assay with naked peptide FNFTDFYCEK and with naked peptide TDFTSPIPNM was “no binding (tested: 1 ug/mL)” throughout.
